What all share (assay): time-resolved fluorescence immunoassay (TR-FIA); plate coated with monoclonal anti-PBX1; PBX1 pre-incubated with PREP1 or MEIS1 for 1 h on ice, 10 µg/mL in 1% BSA PBS, 1 h at room temperature on the plate; detected with anti-PREP1 or biotinylated anti-MEIS1/2 and Eu^3+ conjugates; normalised to the wild-type protein taken as 1
In assay [1] the target is double or triple mutants (L77A/V80A, L77A/I84A, V80A/L81A, L77A/V80A/L81A) of PBX1.
Assay [2] deals with PBX1Δ197-204 (human) (UniProt P40424).
The target in assay [3] is single mutations of most hydrophobic residues (V80, L81 and I84) of PBX1.
Assay [4] deals with T1, PBX1Δ43-55 (human, UniProt P40424 1-430, Δ43-55).
T1 construct: PBX1, residues 1-430, with an internal deletion; source: E. coli, purified
T1 sequence (looked up): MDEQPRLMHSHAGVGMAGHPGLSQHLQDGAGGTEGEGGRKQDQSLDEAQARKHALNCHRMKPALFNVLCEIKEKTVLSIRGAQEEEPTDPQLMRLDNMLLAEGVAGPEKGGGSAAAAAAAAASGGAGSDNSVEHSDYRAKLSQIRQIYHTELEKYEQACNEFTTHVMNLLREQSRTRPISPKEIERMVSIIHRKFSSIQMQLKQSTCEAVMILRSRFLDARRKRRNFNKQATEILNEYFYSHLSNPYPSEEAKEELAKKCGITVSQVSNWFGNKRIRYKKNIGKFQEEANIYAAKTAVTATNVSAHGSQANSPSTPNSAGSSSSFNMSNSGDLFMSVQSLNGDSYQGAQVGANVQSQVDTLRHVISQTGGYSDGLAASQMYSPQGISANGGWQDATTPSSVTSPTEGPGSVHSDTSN
The conditions noted are these: both partners purified.

The target in assay [5] is T2, PBX1 I204A (human, UniProt P40424 1-430, I204A).
T2 construct: PBX1, residues 1-430; source: E. coli, purified
T2 sequence (looked up): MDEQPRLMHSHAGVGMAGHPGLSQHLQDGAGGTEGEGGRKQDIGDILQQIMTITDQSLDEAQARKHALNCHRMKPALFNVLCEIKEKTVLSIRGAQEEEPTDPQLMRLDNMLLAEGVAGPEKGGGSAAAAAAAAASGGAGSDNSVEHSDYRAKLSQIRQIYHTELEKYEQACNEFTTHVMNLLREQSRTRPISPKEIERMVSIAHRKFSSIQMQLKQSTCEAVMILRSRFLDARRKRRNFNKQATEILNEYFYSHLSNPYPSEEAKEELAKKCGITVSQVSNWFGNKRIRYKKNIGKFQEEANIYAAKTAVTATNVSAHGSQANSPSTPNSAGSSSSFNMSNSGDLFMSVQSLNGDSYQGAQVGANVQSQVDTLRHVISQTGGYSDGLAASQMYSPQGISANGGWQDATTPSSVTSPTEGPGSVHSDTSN
The conditions noted are these: both partners purified.

The target in assay [6] is T3, PREP1 L66A (UniProt P55347 1-436, L66A).
T3 construct: PREP1 (PKNOX1), residues 1-436
T3 sequence (looked up): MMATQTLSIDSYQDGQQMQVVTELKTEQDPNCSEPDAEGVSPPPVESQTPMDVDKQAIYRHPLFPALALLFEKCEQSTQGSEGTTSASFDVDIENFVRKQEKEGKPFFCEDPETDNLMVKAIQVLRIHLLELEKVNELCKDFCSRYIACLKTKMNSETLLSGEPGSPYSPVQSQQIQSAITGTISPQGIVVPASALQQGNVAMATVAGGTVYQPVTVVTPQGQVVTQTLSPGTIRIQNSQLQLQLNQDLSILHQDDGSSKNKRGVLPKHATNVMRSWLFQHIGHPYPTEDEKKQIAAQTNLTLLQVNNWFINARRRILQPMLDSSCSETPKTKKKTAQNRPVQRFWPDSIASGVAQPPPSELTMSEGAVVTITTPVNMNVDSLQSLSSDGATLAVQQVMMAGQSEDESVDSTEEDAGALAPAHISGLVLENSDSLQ
The settings on record: both partners purified.

Residue numbers refer to the chain shown, from its start.

B1: PREP1_(1-436), wild-type recombinant (TR-FIA) (natural protein, UniProt P55347 1-436, looked up)
chain: T3 sequence (looked up) with A66L
notes: also called wild-type PREP1; PKNOX1; source: E. coli, purified
Turning to B1, the binding relative to wild type in assay [1] was 30 to 40%; in assay [2], 65%; in assay [3], 40 to 60%; in assay [4] it was 80%; in assay [5] it was about 65%.

B2: PBX1_(1-430), wild-type recombinant (natural protein, human, UniProt P40424 1-430, looked up)
chain: T2 sequence (looked up) with A204I
notes: also called wild-type PBX1; purified recombinant human PBX1; source: E. coli, purified
For B2, the binding result in assay [6] is listed as “binds”.

The values above are taken from PMC7545097, “Mapping the native interaction surfaces of PREP1 with PBX1 by cross-linking mass-spectrometry and mutagenesis” (Scientific Reports, 2020).
